The supplement of paper PMC9170038

Tested on: K4 kissing-loop RNA reporter
Experiment: apparent KD of K4 kissing-loop reporter; higher = weaker reporter binding
Conditions: Eterna round: R107
Procedure: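 RNA-MaP round R107: designed RNA switches with theophylline, tryptophan, arginine or FMN aptamers are transcribed on-chip within common flanks. They are titrated with a labelled K4 kissing-loop RNA reporter in RNA-MaP buffer (100 mM Tris pH 7.5, 80 mM KCl, 4 mM MgCl2), without ligand or with the indicated ligand. Median apparent KD per design.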

[1] = input ligand: theophylline 20 uM
[2] = input ligand: tryptophan 2.4 mM
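Also: bound reporter read as fluorescence of individual clusters on recovered sequencing chips by microscopy, with normalized cluster intensities fitted with a binding model.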

Sequence | apparent KD of K4 kissing-loop reporter (input ligand: FMN 200 uM) [nM] | apparent KD of K4 kissing-loop reporter (input ligand: arginine 13.2 mM) [nM] | apparent KD of K4 kissing-loop reporter (input ligand: none) [nM] | apparent KD of K4 kissing-loop reporter [1] [nM] | apparent KD of K4 kissing-loop reporter [2] [nM]
GGCACGGGCUCGGCCGCCACUCCCGCGGGUCGUAAGGUCCGCUACUGAGUGAUGUUCGGUUGGAGGAGGACCGGGAGCCCGUGCC [#2 Exclusion - Tryptophan B Attempt #20 (HarryS)] | 149 | 220 | 143 | 145 | 119
UGUCAUUGGUCUGAUACCAGUUGAUAAACUGGAGUGAUGUUCCAAUCGAGAUAACUCGACAACCCUUGGCAGCAGACCGAUGACU [TheoBS 15 #SwitchBubble 13 #StaticStem] | 182 | 173 | 176 | 128 | 168
UGUGUUUACCUGACUCAGUGAUGUUGAGAAGGAGCGUGCGAAAGCACAGGUAGGUCGCUCAACCUAAAUUCAGGUGAGCACUAAA [#SwitchBubble 10 #K4Early] | 268 | 234 | 341 | 334 | 277
CGCAGUGAUGUUGCUAUUAUUCUUGGUUAACGAGGACCGGUACGGCCGCCACUCGAUUUCUAUCUAGUCCAGUGUUUUUUUGAGU [whbob_EX_Tryp_A_t7] | 347 | 392 | 470 | 451 | 250
ACAGUCCCGCAUGGUGCGAACGAGAGAUGGCGAGGACCGGUACGGCCGCCACUCGAACAAGUGAUGUUUGAUAUCAUUUUUCUAC [theeternabot_sameState_KL_Trp_A_10] | 98.6 | 83.3 | 117 | 90.7 | 85.4
UGAUAGGAGUGAAGGAGCGGGAGUGAUGUUCCCAAAAUGGAAGCCUGUAAAAUACAGGCCUCCCAGGUAGGUCGCACUCCUAUCU [KL-XARG-B17] | 98.3 | 112 | 101 | 117 | 94.7
UUUUGGCCAACGGCCGCCACUCACUAGUGAUGUUAGUUUGUGUUAUUCAUGAACCCGAUGUCGUCGAGGACCGGGUUGGGUUAUA [theeternabot_exclusion_KL_Trp_B_41] | 242 | 197 | 237 | 201 | 244
UCUUUUGUAUAUGAUACCAGCAGUGAGAGACAGGAAGUAUAGUGAUGUUAUAUGAGAGAAUGCCCUUGGCAGCGUGUGCGGUGGG [SSTheophylB.U] | 151 | 146 | 114 | 178 | 108
UGUGUUGUUUUGAUGUUUGGUGUUGCAUGGCAGGAUAUCGUAGAGGCGAGAAGGGCUUUUGAGCGGUAUGAGUGAUGUUUGUAGG [p,,mmullin] | 526 | 309 | 441 | 354 | 379
AACUUUUAAUGAAUUACAUUUUAUUUAUCUCGAGGACCGGUACGGCCGCCACUCGUACUAUAGUGAUGUUAUAGAUAAGUCCUAA [JR_ExcTryptoA_Sub019] | 149 | 212 | 179 | 233 | 73.8
GGCUUGCCAGUGAUGUUGGCAUAUUCUGAAGGAGCGCGUGAAAACGCAGGUAGGUCGCAGAACCUUGCCAACUAUUUUAGUUGCC [Ex Arginine A K4 26] | 242 | 210 | 237 | 334 | 210
AGAAACUUGUAUGUCGGCCCUGCGCGCGAUACCAGCCAAAUGGAUGGCCCUUGGCAGCGCAGCGAGUGAUGUUCGCCCGGCUGAC [Exclusion Theophylline A GF 21] | 77 | 108 | 95.9 | 110 | 65.7
GCCGUAGAUUGAAGGAGCGACAUAAACGAUGUUCUGGUAGUGAUGUUACCUUAGCAGGCAUGUCAGGUAGGUCGCAAUCUACGGC | 238 | 133 | 209 | 162 | 176
CUAUCCCGCCGUGUACGUAAUAUACGGUGCCGAGGACCGGUACGGCCGCCACUCGAUAAGCUUUGUCGGAGUGAUGUUCCGACCG [Maais] | 200 | 156 | 229 | 280 | 202
GUUGACUACCAGAGGUGAUGUAUAGUAUCGCGAGGACCGGUACGGCCGCCACUCGUGAAGAGAAAGGAGUGAUGUUCCGUAAUGG [C9] | 222 | 254 | 322 | 340 | 122
AAAGGCAAAGCCCGAGUGAUGUUCGACGAUACCAGCCUCGAUAGAGGCCCUUGGCAGCGUAAAUGAUCACAAAGCCAAGGAAUAA [#OpenEnded 2 #StaticStem] | 310 | 244 | 268 | 248 | 261
UUAGGAGUGGAAGGAUAUCCUGGUGUGGGUGAUGUUAGUGAUGUUGAAGGUGCAGUGAUGUUGCGCGGAGAAGGUCCGGUGUUGA [BDazzled - #6 - Exc. FMN B] | 344 | 341 | 367 | 546 | 319
GUUACGCAUGGAAGGAGCGCAUGCUCAGCUAUAAGCUCAGUGAUGUUGAGCAUUUUUUUUUUGCAGGUAGGUCGCCAUGUGUAAC [Ex Arginine B K4 30] | 172 | 188 | 218 | 191 | 170
GGAUUCGGCACGGCCGCCACUUCCGGUGGCUGGUGUCAUGGUGCGCGUGAGUGAUGUUUAUGUGGGAGGACCGGGUGUUGAGUCC [whbob_Ex_Tryp_B_w44] | 1020 | 433 | 834 | 1000 | 502
GCCUGGGCACGAAGGAGCGCCGUGACAGGUUACUGCCUUGGGCAGUGAUGUUGCUCAAUCUGGCAGGUAGGUCGCGUGCCCAGGC | 162 | 162 | 161 | 159 | 168
AUAAACUUGCAGUGAUGUUGCAAGUAAGACUAGGAUAUCAGGAAACUGAGAAGGAGUCAUCUCCUUCAAACAUCACUAUGAAGGA [[K1]-[K2]-[F1]-[F2]-[F]'-[K]'-[F]''_Design5] | 507 | 263 | 384 | 413 | 331
AUCGGGAAUACGGCCGCCACUAUAGAGGCGACUACAUACCACCACAGUGAUGUUGUGCUGACCAGUAGGACCGGGUAAAAUCGAU [theeternabot_exclusion_KL_Trp_B_49] | 817 | 594 | 871 | 726 | 672
